Reference: the DeepSol protein solubility set

Experiment: soluble on expression in E. coli; label from the status in PepcDB or PDB records

Row | Sequence | soluble on expression in E. coli
1 | MGSDKIHHHHHHMIERLELRNLTVFTGLTLELSPKINVIIGENGTGKTHLLKAAYGLCAGAPLFKNKPDTGDDELEAALTAKLLRLFMPLDDKLGKMHRQGATDQAYLSAKFAGGQKIAATFFNNSKALAVQDRANYEKYQAEAVFIPTKEVLSFMKGFNSLYEKYGLSFDQTYQDICLLLDLPEVRPETLHEKSKWAMAEIEGICGGRFVFYGGGKVTFKTENAEYSANSMAEGFRKAGILSRLLETGAIQPGVSGPLFWDEPESNLNPKLMKLLVQILLELSRNGQQIILATHDYVLLKWFDLLMDKGKDDHVRFHSLYRDADTSEIKVASTEDYLKITPNPIDEAFGFLINQEIENDMGGLGK | not soluble
2 | MVLVELFGFGPHLMVDGYEANPDRLRDAELIRRVLNELPEEMEMTKVLPPFVYSYGPGGEDGVTGVVIIAESHIAIHTFPKKRFLSVDIFSCKAFDMAKALKKLAEVFEIRRYETYMINRGKEFPKDPELARQIVLGEREYLEARVG | soluble
3 | MGSDKIHHHHHHMIELDNIKICPLAGIDDAIIIQSLNKASLTTSTSAIGPAVAEMVTRHGAVLLRGFAPEGTSAMAALFASLQWKPLQYTYRSTPRTSVSEGIYTATEFPASEEIMLHSENAFQADWPTRIGFHCAVPARAGGETPIGSLEKITARIDTGLFDEFRRRGVSYVRNYSDYVDLPWQVVFQSSDRGDVEEYCKNHGIGFEWRNSGLRTWQACQGTATHPERGNEVWFNQAHMFHYTALGPEMASNLLSIFGEEELPRNAYYGDGGVIPKDAVEHIREAFSAERASFGWEKDDILLLDNMRYCHGRNPFEGPRQVLVSMGRGYASVVDSSH | not soluble
4 | MGKPMQVSRYWRHFREKYRLIGGKCENGHLLFPKRPICPICGSRNIEEFQFSGKGKVITWTIVRNPPSGFEYYKPYPLALVQLEEGPVVLAQLTDVEPEEIKEGMEVEMVTRKIREFDEDGLILYGYKFRPIIKSELEHHHHHH | soluble
5 | MGSDKIHHHHHHMTKSDLLFDKFNDKHGKFLVFFGTFVDTPKLGELRIREKTSVGVLNGIIRFVNRNSLDPVKDCLDHDSSLSPEDVTVVDIIGKDKTRNNSFYFPGFVDTHNHVSQYPNVGVFGNSTLLDWLEKYTFPIEAALANENIAREVYNKVISKTLSHGTTTVAYYNTIDLKSTKLLAQLSSLLGQRVLVGKVCMDTNGPEYYIEDTKTSFESTVKVVKYIRETICDPLVNPIVTPRFAPSCSRELMQQLSKLVKDENIHVQTHLSENKEEIQWVQDLFPECESYTDVYDKYGLLTEKTVLAHCIHLTDAEARVIKQRRCGISHCPISNSSLTSGECRVRWLLDQGIKVGLGTDVSAGHSCSILTTGRQAFAVSRHLAMRETDHAKLSVSECLFLATMGGAQVLRMDETLGTFDVGKQFDAQMIDTNAPGSNVDMFHWQLKEKDQMQEQEQEQGQDPYKNPPLLTNEDIIAKWFFNGDDRNTTKVWVAGQQVYQI | not soluble
6 | MIFSKKDIQEVLPADVTGRSVAHPKRWLVALVRISHEKKTSERLSKMGIENFLPVQQEVHQWSDRRKVVERVLLPMMIFVHVDMYEQKEVLTLGSISRYMVLRGESTPAVIPDEQMHRFKFMLDYSDEAINMSTTPLSPGTKIKVIKGPLSGLQGELVTVNGKSKVAVRLTMLGCAFVDIPVGCVEPLEK | not soluble
7 | MGSDKIHHHHHHMKAPEGIACGKRQLVVSDTGGGRLLSYSIENGSVRGGTEIKAEQVPYPTKVQLTSKGEILVIDGKLRRIAHFSPEGSFAGYLDLKGVPAPATIAPRGIRVDDKDNIHILDIFGARVIVTDAAGTFQSQMPFPEGYRFISDLAVSASGTTLLLDSVASRVYAAARGETAFKPLTDGMKEYLQFPTSIATDKQGKIFILDQTGNAVVTLGQDGSFQGRQLNIGWKNSFLHYPSQLCISEENDIDVVIADRNNNRIQVFRVVR | not soluble
8 | MSLMDYGIDIWGNENFIIKNGKVCINYEKKPAIIDIVKELRDDGYKGPLLLRFPHLIQKQIENIYGNFNKARKEFGYKGGFNAVYPLKVNQYPGFVKNLVKLGKDYNYGLEAGSKAELLLAMAYNNEGAPITVNGFKDRELINIGFIAAEMGHNITLTIEGLNELEAIIDIAKERFKPKPNIGLRVRLHSAGVGIWAKSGGINSKFGLTSTELIEAVNLLKENKLLEQFTMIHFHLGSQITEIHPLKKALNEAGNIYTELRKMGAKNLKAINLGGGLAVEYSQFKNEKSRNYTLREYANDVVFILKNIAEQKKDLEPDIFIESGRFVAANHAVLIAPVLELFSQEYAENKLILKKQNPKLIDELYDLYKSIKPSNALEYLHDSIDHLESILTLFDLGYVDLQDRSNAEILTHLITKKAILLLGDKQNPADLLAIQDEVQERYLVNFSLFQSMPDFWGLEQNFPIMPLDRLDEEPTRSASIWDITCDSDGEISYSKDKPLFLHDVDVEKENYFLGFFLVGAYQEVLGMKHNLFTHPTEAIISINEKGYEVEGIIEAQSILDTLEDLDYDIHAIMDILNERISNSKLVNDKQKKHILGELYLFLNDNGYLKSIGVEGHHHHHH | soluble
9 | MSLFFGFTSCLDICPSTLTILGQAEKHRENLPETQRPQVLFVSINPDRDSPLRLSGYARAFHKNILTTTADTPALQRFATALGLRFRKVPGKSYAENPLDDTMDHPTAIVVLDPQGHHVGMIHPPFNAEEIPTDLQKLTKEITEGHHHHHH | not soluble
10 | MSLKYPGFLYLNDIHIDLSYNPKSNKDWCHSQTNNLLESWEFGQYNCDPPPKLYDSLVESLKTNVPSVDFILLGGDLPSHDLGGNYTFLKEHFRLITDPLEKLYPNKKIFITLGNNDFQENYGSFKTDLKDFENAHEVFGKWMNEEQSKTFKKGGYYYEDMPELKLRLLLLNTVMYTNTKSRVFNESLKDPYDQFAWIRQTYKEGVDKGYKVGVALHVPPGIVYYKGIPGFPSMYLEEFGKVFEECDFSFTISGHSHIDTLNPLYKANVEEDNIQYSLSAVSVSPSHYNNPGYRYFEIKDGVLQDYTQFYADIMMNPDSPKWEVEYKFRDAYKVKDLSKKSLNDATRYIRSKGSVIWSYRGYIYSQAEKYNPFFYCALRALTKEDVFKCSLDLNVNLSSEGHHHHHH | soluble
11 | MHIERLDFENSPYLGVFGVATDRVVLIREGLQEKKLEVIRETLKVPVIEVSVMKSRIIGTLATGNSNAIILPWYVWDAEIERIKKALSEYGIDMEVVPFRSKYTALGNLILTNDKAALVSAKFSRKEAQEIGEILGVEVERGVIAGLHAVGSAGVVTNKGGLVHPETSDEELEWLSDLFKVDVYVGTANMGVPYVGTCMLANSNGVVVGHLTTGPEIVKIEEALGFV | soluble
12 | MAHHHHHHMENINRVNKYDNPNEAIKNMVDKIINKKEMMKYFLDAQDIFEYHDVGKKGEVDITLFPKMARQLKQVYDIRDINNFKKEMKIKKIYKMDLQLFFTLLKRKILYSINNSNNNENDNSSFRQHYDILDMKKKQLLDVDELRTYLGLMGDKINPDDFNILLRYNLINNHRINKDDIVLDENKEIKNISFNAYVDMLTCYKYI | not soluble
13 | MAHHHHHHMRSSQFLLSGLRRTAILMTISDEYIPRAFPVKSTTGLAGIAVEPLWKPKLLAAASELQAFLTSSDIPPESTYYNIAMTLVKRVNHGIKECQDDWCTLEKRYFWGWPVEYILQVTWRELETAQKWNEWRFWELDPEQVKKVAREDQNIGREGLGYNSPWEQVVREDFDKRKKALTQEEMAELKRMDTERMARETAAYKERKDRIRDDLEKARGDMLKKFLNKRFAVDKDLQRMQPGKRYSGKTADDLIAELKSSVENNPQKSDLGK | not soluble
14 | METGMVTVVNSNNFDVPRIYPPSSKSTSIHLTGFPTFYSKDHEYLLPVNLWFNYLVNIRKAVDITASVRALKRYWQFLETNNYSWDNFPANDYLKPTYRFRNDDLLKAARSGEIAFSTASMYILHVIKFYEWAAHERFITFTEENKPFNYQIVHIANSGMMSHNNPRFTVRSTDLRIRKPARNEQQKLNPLSQQELLFFADCLKECSDEFIIHQLLQIQSGLRVEEACTFPFSIVEMPNPHIHRYEVEIGIHNGVHTKFNKTRKVEIPNQLMRKMYDYSVSERRLKREKKTDGVNKTLLLNNLGNPLCSNNIQQHFRRLRHHIQNKHNIVFSHRTHDLRATYGTYRLDSLLDHLPVGDALALIMGWMGHKDDKTTWKYLRYLRKEKANQNAIVMLDQILEEAML | not soluble
15 | MGSDKIHHHHHHEADNYEPPKVDLKDQIPIILIHGSGGNASSLDKMADQLMNEYRSSNEALTMTVNSEGKIKFEGKLTKDAKRPIIKFGFEQNQATPDDWSKWLKIAMEDLKSRYGFTQMDGVGHSNGGLALTYYAEDYAGDKTVPTLRKLVAIGSPFNDLDPNDNGMDLSFKKLPNSTPQMDYFIKNQTEVSPDLEVLAIAGELSEDNPTDGIVPTISSLATRLFMPGSAKAYIEDIQVGEDAVHQTLHETPKSIEKTYWFLEKFKTDETVIQLDYK | not soluble
16 | MDKEKVLDKIKKCLALGRSVNEHEAAQALRQAQALMEKYKVNAEDIALSKVSEQKADRKMAFKLAGWQWGVANMIADIFGCKSYQRGKTMMFYGIGNRAETSAYAFDVVYRQISADRRKFLKTCRAGKPSHRTYLADRFCGGWIASAWETVKKFEMSDEEKAIMDGYKKKEYPDMAEARTRDAKSSILQGSKMEYEALTRGMESGKQVKLHYAVNGTGFVKQIGGQT | not soluble
17 | GPGSMLRRSYATLRRKASVVLKGQLNPLEALTQIQLGMTPSLPIQRGFLLEHCERQLESLGITEGKLLAMDGRLCTQLTKRIVYELYLSVPFRVFTFDMEFTGPPVFTADGPTEDITELGLYSPLLDETFSCLVRPVCGRKQGPGVEELTHITDMMLEREGIPFVEAWQQFLKFVQTPQPDEISGSEERILLLSHGGKLADVSLIKWTLEKFHMELPPSFVFGDTIHLIRDAHRRRPVTIDKHPPSWKLADLVQWLHIPPTLPAHRAGNDARMTWDALYHTLLRYGDDGMTPREQLVPRFFDAEAKQLLREHTARQAQERAALSLDGTFLLADAKQSTSAGHADSSSIGYSVYRSASDGSGKPGKSGAATDLLDLDFDDIFSEQNKVSASAPIEEFKLDDDDDLHSISAGATSFTASRTLSSTTTSRTADLSVDPAEDDNAVSDVNAASTSTVSPARAAKTATSGGRKGKASGSSRSKEAVEKRNKRRVSAGDDDGGETSDPPAAATRAVFLV | soluble
18 | MRLIAAGEAQNAQQADEDVVQRNIQANRGTNIVRFTAMNDVAGFKQNSARGDQNEDRADRQMQGRQLQEDISNHTNQHHHNTRHQHTAKERHIFAGGQHIRRAAEEHQRRSAQCHSDYVTHSSRQVGVQNWSEDISQKTGKGECGDNPGRLIRRFVGQEHQTIHTHQRQNQTRRWQHQHRTGSCGNRRKGQRQAQQKIGITQHLMGAKQRCTVM | soluble
19 | MQHQTLYQDDFVEIFEQDNEVFIKTFKPGLPPKQLNEILSSLPQIQITSFNCLNDALNIVSPSPQKFGRLKERIAITVTPDELKAFVTFNLPREELDIKNRENLIKETYQVLKKKNINFGIKKELFFGDLESGKKYLIAEGVPAVDGEDCKIRMYELEEPRPEIREDGKANYYELKLINKVKAGDWLGERIDATEGFPGKTVYGTTIHPVRGKNYPLSYDKNTVYEVVQNKKVVLYSKIDGAVHYDGNKITVSNHLEIDGDVDFKTGNIIFDGYVTIKGTVTDGFYVEATKDIEINSPLGLGNVKGIKSREGSIYIKGGISSKSFSEISARKNIYTKFVDNVKLSCGGTAHIGFYCINSMVEAKEVFIESIKGNIMGGQVKAEVKITVPVLGSPLEPRTVLILTGFDRKKLSKMLEDIVDRIDRIKEEQMDIKLYLSKQDPFKEMTSRETAEYNSKMQRMSELKAELKSLEEEKKNIARYLKTKGEGEIAITKKVYPNCSIIIKNIQTEIKEPCLATTFFAADGEIKRV | soluble
20 | FPDPSFIIDAEGRFLDCLTDPETMLTVDDTDTLVGQTLHEFFPHDTADSLLAAVRAALRTGSFQSVEYKLQVPSDKRWFEARVAPLESRAYDPDTVIFVARDI | not soluble
21 | MNRHSTTSGNLNTVFGYVDEETVSQGISASYVGSGKLVGNRLVRHTQTSLFSSANTW | not soluble
